First the molecules themselves.
B1: NRC3_wobSeed74_DR3_T9A_o1 (dsDNA)
DNA 1: GCTCTAGTAGGTCACGGAGGTCACACACGACGGGTAGCGATTGACAGCGTAGAATGAAGG
DNA 2: CCTTCATTCTACGCTGTCAATCGCTACCCGTCGTGTGTGACCTCCGTGACCTACTAGAGC
B2: NRC3_random_hg19_204_o1 (dsDNA)
DNA 1: GCGCCTGCATCTCCACATCCATGGAGTCCTGCTGAGGCGATTGACAGCGTAGAATGAAGG
DNA 2: CCTTCATTCTACGCTGTCAATCGCCTCAGCAGGACTCCATGGATGTGGAGATGCAGGCGC
B3: NRC3_random_hg19_67_o1 (dsDNA)
DNA 1: GCCTGGCTGGGCATGGTGGCTCATGCCTGTAATCCCGCGATTGACAGCGTAGAATGAAGG
DNA 2: CCTTCATTCTACGCTGTCAATCGCGGGATTACAGGCATGAGCCACCATGCCCAGCCAGGC
B4: NRC3_random_hg19_478_o1 (dsDNA)
DNA 1: GCATCAGCCATTTGGTATGCAAGTAGATTAGAAGCCGCGATTGACAGCGTAGAATGAAGG
DNA 2: CCTTCATTCTACGCTGTCAATCGCGGCTTCTAATCTACTTGCATACCAAATGGCTGATGC
B5: NRC3_random_hg19_355_o1 (dsDNA)
DNA 1: GCTCACCGTGTTAGCCAGGATGGTCTCAATCTCCTGGCGATTGACAGCGTAGAATGAAGG
DNA 2: CCTTCATTCTACGCTGTCAATCGCCAGGAGATTGAGACCATCCTGGCTAACACGGTGAGC
B6: NRC3_wobSeed109_DR4_C7A_o1 (dsDNA)
DNA 1: GCCGTCAAAGGTCATAGGAGGTCAGTGAAGACAGATGCGATTGACAGCGTAGAATGAAGG
DNA 2: CCTTCATTCTACGCTGTCAATCGCATCTGTCTTCACTGACCTCCTATGACCTTTGACGGC
B7: NRC3_wobSeed1_DR0_T8G_o1 (dsDNA)
DNA 1: GCCAAACGAGGTCAAGGTCAAAGTCGGTTTGTGCCAGCGATTGACAGCGTAGAATGAAGG
DNA 2: CCTTCATTCTACGCTGTCAATCGCTGGCACAAACCGACTTTGACCTTGACCTCGTTTGGC
B8: NRC3_wobSeed49_DR2_T8A_o1 (dsDNA)
DNA 1: GCCAAACAAGGTCAAGAGGTCAAAGTCCGCTTCCCGGCGATTGACAGCGTAGAATGAAGG
DNA 2: CCTTCATTCTACGCTGTCAATCGCCGGGAAGCGGACTTTGACCTCTTGACCTTGTTTGGC
B9: NRC3_wobSeed77_DR3_C8G_o1 (dsDNA)
DNA 1: GCACTTAGGGGTCAACGAGGTTATAGCACGCGTATAGCGATTGACAGCGTAGAATGAAGG
DNA 2: CCTTCATTCTACGCTGTCAATCGCTATACGCGTGCTATAACCTCGTTGACCCCTAAGTGC
B10: NRC3_wobSeed99_DR4_A12T_o1 (dsDNA)
DNA 1: GCTCTCGGAGGTCACGAAAGGTCAGAGCTCGACATCGCGATTGACAGCGTAGAATGAAGG
DNA 2: CCTTCATTCTACGCTGTCAATCGCGATGTCGAGCTCTGACCTTTCGTGACCTCCGAGAGC
B11: NRC3_wobSeed121_DR5_T8G_o1 (dsDNA)
DNA 1: GCCAAACGAGGTCACCGGAAGGTCAAAGTCCGCATGGCGATTGACAGCGTAGAATGAAGG
DNA 2: CCTTCATTCTACGCTGTCAATCGCCATGCGGACTTTGACCTTCCGGTGACCTCGTTTGGC

Sequence of RARa:RXRa (P10276 whole entry, chain 1 of 2): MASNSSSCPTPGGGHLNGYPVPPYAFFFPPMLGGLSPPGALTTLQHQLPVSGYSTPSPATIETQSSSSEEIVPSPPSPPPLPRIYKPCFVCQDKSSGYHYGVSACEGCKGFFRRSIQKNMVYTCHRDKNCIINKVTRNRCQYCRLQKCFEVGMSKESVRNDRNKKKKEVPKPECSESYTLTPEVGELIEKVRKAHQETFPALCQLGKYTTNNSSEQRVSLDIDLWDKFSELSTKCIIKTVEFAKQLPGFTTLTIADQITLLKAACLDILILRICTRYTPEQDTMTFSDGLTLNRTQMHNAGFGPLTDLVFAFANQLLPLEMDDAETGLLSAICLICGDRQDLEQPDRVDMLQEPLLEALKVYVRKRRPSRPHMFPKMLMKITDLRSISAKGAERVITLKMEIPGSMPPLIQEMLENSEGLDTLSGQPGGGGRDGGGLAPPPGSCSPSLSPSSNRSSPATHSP
Sequence of RARa:RXRa (P19793 whole entry, chain 2 of 2): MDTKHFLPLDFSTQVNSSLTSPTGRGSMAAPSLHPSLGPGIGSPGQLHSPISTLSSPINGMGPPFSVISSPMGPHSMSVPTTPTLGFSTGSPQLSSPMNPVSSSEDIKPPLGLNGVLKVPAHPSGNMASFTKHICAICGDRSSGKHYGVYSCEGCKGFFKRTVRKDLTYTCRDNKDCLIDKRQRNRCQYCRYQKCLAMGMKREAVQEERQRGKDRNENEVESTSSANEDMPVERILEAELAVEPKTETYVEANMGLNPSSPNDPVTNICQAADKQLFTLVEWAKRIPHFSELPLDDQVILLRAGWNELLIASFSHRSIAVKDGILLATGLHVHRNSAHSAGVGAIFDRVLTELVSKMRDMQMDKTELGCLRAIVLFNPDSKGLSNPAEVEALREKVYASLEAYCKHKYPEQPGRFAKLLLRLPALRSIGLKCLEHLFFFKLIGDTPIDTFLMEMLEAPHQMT
Sequence of RARg:RXRa (P13631 whole entry, chain 1 of 2): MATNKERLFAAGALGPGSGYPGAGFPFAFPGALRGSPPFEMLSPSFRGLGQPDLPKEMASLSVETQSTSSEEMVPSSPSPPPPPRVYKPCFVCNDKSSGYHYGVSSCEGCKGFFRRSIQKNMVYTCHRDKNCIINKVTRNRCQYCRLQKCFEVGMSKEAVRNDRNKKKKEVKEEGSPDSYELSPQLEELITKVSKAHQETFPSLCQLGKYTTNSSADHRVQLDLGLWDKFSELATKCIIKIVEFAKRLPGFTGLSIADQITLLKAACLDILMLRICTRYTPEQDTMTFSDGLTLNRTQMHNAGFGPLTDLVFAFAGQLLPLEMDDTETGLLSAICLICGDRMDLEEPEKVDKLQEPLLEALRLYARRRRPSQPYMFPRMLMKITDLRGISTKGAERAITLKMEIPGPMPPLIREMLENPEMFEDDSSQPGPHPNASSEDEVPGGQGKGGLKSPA
Sequence of RARg:RXRa (P19793 whole entry, chain 2 of 2): as the sequence (P19793 whole entry, chain 2 of 2) above
Sequence of LXRb:RXRa (P55055 whole entry, chain 1 of 2): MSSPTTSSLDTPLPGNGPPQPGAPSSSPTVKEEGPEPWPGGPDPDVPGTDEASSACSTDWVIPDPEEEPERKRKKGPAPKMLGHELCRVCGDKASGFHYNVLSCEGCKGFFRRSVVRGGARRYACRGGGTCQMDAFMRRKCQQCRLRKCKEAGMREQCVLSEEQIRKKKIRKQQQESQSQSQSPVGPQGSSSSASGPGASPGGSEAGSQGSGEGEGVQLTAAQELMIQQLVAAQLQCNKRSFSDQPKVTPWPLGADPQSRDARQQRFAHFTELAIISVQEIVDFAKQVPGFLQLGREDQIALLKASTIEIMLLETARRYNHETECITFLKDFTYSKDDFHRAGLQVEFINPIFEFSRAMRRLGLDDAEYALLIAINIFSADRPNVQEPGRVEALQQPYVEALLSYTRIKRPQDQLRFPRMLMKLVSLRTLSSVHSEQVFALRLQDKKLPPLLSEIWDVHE
Sequence of LXRb:RXRa (P19793 whole entry, chain 2 of 2): as the sequence (P19793 whole entry, chain 2 of 2) above
Sequence of VDR:RXRa (P11473 whole entry, chain 1 of 2): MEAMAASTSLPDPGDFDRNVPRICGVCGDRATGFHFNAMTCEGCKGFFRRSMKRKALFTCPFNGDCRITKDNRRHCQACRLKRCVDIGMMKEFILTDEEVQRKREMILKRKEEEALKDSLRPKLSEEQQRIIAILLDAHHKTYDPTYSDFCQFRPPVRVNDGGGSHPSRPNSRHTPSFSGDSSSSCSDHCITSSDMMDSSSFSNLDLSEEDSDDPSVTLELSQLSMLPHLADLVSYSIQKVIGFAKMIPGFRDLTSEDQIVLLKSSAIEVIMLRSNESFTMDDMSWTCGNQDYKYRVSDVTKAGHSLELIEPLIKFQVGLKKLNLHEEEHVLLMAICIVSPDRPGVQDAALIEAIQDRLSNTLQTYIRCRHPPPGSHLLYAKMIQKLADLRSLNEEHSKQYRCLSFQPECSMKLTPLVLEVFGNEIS
Sequence of VDR:RXRa (P19793 whole entry, chain 2 of 2): as the sequence (P19793 whole entry, chain 2 of 2) above

For one data set, the target named is PPARg:RXRa (Homo sapiens, UniProt P37231;P19793 full;full). Description: no ligand; PBM; 180 nM : 90 nM RXRa; PBS pH 7.4, 2% milk, 0.02% Triton X-100, 1 mM DTT, BSA, 0.4 mg/ml salmon testes DNA. To be noted: tags: His kept;His cleaved; copies: 1;1; label: surface-attached array probe.
Sequence of PPARg:RXRa (P37231 29-505, chain 1 of 2): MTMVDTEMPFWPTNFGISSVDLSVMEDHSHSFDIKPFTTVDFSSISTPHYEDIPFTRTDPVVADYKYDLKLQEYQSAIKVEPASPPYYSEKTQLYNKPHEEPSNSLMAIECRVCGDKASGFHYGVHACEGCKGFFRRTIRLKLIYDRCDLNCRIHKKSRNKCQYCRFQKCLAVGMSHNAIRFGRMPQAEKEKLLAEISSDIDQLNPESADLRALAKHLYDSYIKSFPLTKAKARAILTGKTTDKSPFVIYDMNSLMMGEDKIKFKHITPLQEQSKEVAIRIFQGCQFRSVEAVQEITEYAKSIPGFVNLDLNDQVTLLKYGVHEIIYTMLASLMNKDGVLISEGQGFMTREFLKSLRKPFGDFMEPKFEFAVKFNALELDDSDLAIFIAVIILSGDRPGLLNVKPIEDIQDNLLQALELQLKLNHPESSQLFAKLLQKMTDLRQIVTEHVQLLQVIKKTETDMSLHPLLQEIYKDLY
Sequence of PPARg:RXRa (P19793 whole entry, chain 2 of 2): as the sequence (P19793 whole entry, chain 2 of 2) above
On to B1, for which the binding signal is 9.93 PBM z-score against 500 random probes.

Consider B2, for which the binding signal was 0.07 PBM z-score against 500 random probes.

Regarding B3, the binding signal was -1.37 PBM z-score against 500 random probes.

With B4, the binding signal is 0.2 PBM z-score against 500 random probes.

Regarding B5, the binding signal was -0.61 PBM z-score against 500 random probes.

Another data set has as its target THRa:RXRa (Homo sapiens, UniProt P10827;P19793 full;full). Description: no ligand; PBM; 90 nM : 90 nM RXRa; PBS pH 7.4, 2% milk, 0.02% Triton X-100, 1 mM DTT, BSA, 0.4 mg/ml salmon testes DNA. Particulars: tags: His kept;His cleaved; copies: 1;1; label: surface-attached array probe.
Take B6: the binding signal is 5.57 PBM z-score against 500 random probes.

On to B1, for which the binding signal was 4.93 PBM z-score against 500 random probes.

For B2, the binding signal was -0.86 PBM z-score against 500 random probes.

In the case of B7, the binding signal is 4.94 PBM z-score against 500 random probes.

As for B3, the binding signal was -0.95 PBM z-score against 500 random probes.

As for B8, the binding signal was 4.99 PBM z-score against 500 random probes.

Consider B9, for which the binding signal is 4.82 PBM z-score against 500 random probes.

Take B4: the binding signal was -0.66 PBM z-score against 500 random probes.

Turning to B10, the binding signal was 5.45 PBM z-score against 500 random probes.

Turning to B11, the binding signal was 5.39 PBM z-score against 500 random probes.

Regarding B5, the binding signal is -0.48 PBM z-score against 500 random probes.

The next data set has as its target RXRa (Homo sapiens, UniProt P19793). Description: no ligand; PBM; 180 nM; PBS pH 7.4, 2% milk, 0.02% Triton X-100, 1 mM DTT, BSA, 0.4 mg/ml salmon testes DNA. Particulars: tags: His cleaved; chain copies: 2; label: surface-attached array probe.
Regarding B6, the binding signal was 8.51 PBM z-score against 500 random probes.

B2: the binding signal was -0.59 PBM z-score against 500 random probes.

For the molecule B7, the binding signal was 8.3 PBM z-score against 500 random probes.

For B8, the binding signal is 9.65 PBM z-score against 500 random probes.

On to B9, for which the binding signal was 9.89 PBM z-score against 500 random probes.

B10: the binding signal was 8.83 PBM z-score against 500 random probes.

As for B11, the binding signal was 9.51 PBM z-score against 500 random probes.

On to B5, for which the binding signal is -0.34 PBM z-score against 500 random probes.

The target in the next data set is LXRb:RXRa (Homo sapiens, UniProt P55055;P19793 full;full). Description: no ligand; PBM; 270 nM : 90 nM RXRa; PBS pH 7.4, 2% milk, 0.02% Triton X-100, 1 mM DTT, BSA, 0.4 mg/ml salmon testes DNA. To be noted: tags: His kept;His cleaved; copies: 1;1; label: surface-attached array probe. The essentials:
(§1)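 Binding z-scores take random background probes as their reference. They come from custom Agilent 4×180K protein-binding microarrays incubated 1 h with ligand-free nuclear receptor dimers, with antibodies against each partner (one per run) detecting binding. Scanned fluorescence was regression-normalized.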
In the case of B6, the binding signal is 7.17 PBM z-score against 500 random probes.

Regarding B7, the binding signal is 6.16 PBM z-score against 500 random probes.

For B8, the binding signal was 6.73 PBM z-score against 500 random probes.

For the molecule B9, the binding signal was 6.91 PBM z-score against 500 random probes.

Take B10: the binding signal is 7.35 PBM z-score against 500 random probes.

With B11, the binding signal was 7.15 PBM z-score against 500 random probes.

Another data set has as its target RARg:RXRa (Homo sapiens, UniProt P13631;P19793 full;full). The description is as above. To be noted: tags: His kept;His cleaved; copies: 1;1; label: surface-attached array probe. The essentials: as §1
As to B6, the binding signal is 8.29 PBM z-score against 500 random probes.

B7: the binding signal is 7.53 PBM z-score against 500 random probes.

As for B8, the binding signal was 9.11 PBM z-score against 500 random probes.

For the molecule B9, the binding signal is 8.09 PBM z-score against 500 random probes.

With B10, the binding signal is 8.59 PBM z-score against 500 random probes.

B11: the binding signal was 9.6 PBM z-score against 500 random probes.

Another data set concerns the target PPARa:RXRa (Homo sapiens, UniProt Q07869;P19793 full;full). The data set is described as above. Particulars: tags: GST kept;His cleaved; copies: 1;1; label: surface-attached array probe. In outline: as §1
On to B6, for which the binding signal was 7.01 PBM z-score against 500 random probes.

B7: the binding signal is 6.72 PBM z-score against 500 random probes.

Take B8: the binding signal was 7.02 PBM z-score against 500 random probes.

On to B9, for which the binding signal was 7.03 PBM z-score against 500 random probes.

For the molecule B4, the binding signal is -0.63 PBM z-score against 500 random probes.

As to B10, the binding signal is 6.75 PBM z-score against 500 random probes.

On to B11, for which the binding signal was 7.14 PBM z-score against 500 random probes.

For the molecule B5, the binding signal was 0.1 PBM z-score against 500 random probes.

The target in another data set is PXR:RXRa (Homo sapiens, UniProt O75469;P19793 full;full). Described as above. Particulars: tags: His kept;His cleaved; copies: 1;1; label: surface-attached array probe. In outline: as §1
For B6, the binding signal is 7.51 PBM z-score against 500 random probes.

For the molecule B1, the binding signal was 6.39 PBM z-score against 500 random probes.

For the molecule B2, the binding signal is -0.93 PBM z-score against 500 random probes.

As for B7, the binding signal was 6.83 PBM z-score against 500 random probes.

With B8, the binding signal is 7.38 PBM z-score against 500 random probes.

Turning to B9, the binding signal is 7.16 PBM z-score against 500 random probes.

As for B10, the binding signal was 7.53 PBM z-score against 500 random probes.

Turning to B11, the binding signal was 7.41 PBM z-score against 500 random probes.

A further data set has as its target RARa:RXRa (Homo sapiens, UniProt P10276;P19793 full;full). The data set is described as above. To be noted: tags: His kept;His cleaved; copies: 1;1; label: surface-attached array probe. The essentials:
as §1
In the case of B6, the binding signal was 7.3 PBM z-score against 500 random probes.

On to B1, for which the binding signal was 7.07 PBM z-score against 500 random probes.

As for B2, the binding signal was -0.76 PBM z-score against 500 random probes.

In the case of B7, the binding signal was 7.18 PBM z-score against 500 random probes.

Regarding B3, the binding signal was -0.94 PBM z-score against 500 random probes.

B8: the binding signal was 9.05 PBM z-score against 500 random probes.

Consider B9, for which the binding signal was 7.93 PBM z-score against 500 random probes.

As to B4, the binding signal is -0.34 PBM z-score against 500 random probes.

In the case of B10, the binding signal was 7.86 PBM z-score against 500 random probes.

Consider B11, for which the binding signal is 8.77 PBM z-score against 500 random probes.

For the molecule B5, the binding signal is -0.62 PBM z-score against 500 random probes.

The target in the next data set is LXRa:RXRa (Homo sapiens, UniProt Q13133;P19793 full;full). The description is as above. Particulars: tags: His kept;His cleaved; copies: 1;1; label: surface-attached array probe. In outline: as §1
With B6, the binding signal was 8.48 PBM z-score against 500 random probes.

In the case of B7, the binding signal is 6.82 PBM z-score against 500 random probes.

On to B8, for which the binding signal is 7.44 PBM z-score against 500 random probes.

As for B9, the binding signal is 7.15 PBM z-score against 500 random probes.

For the molecule B4, the binding signal is -0.84 PBM z-score against 500 random probes.

For the molecule B10, the binding signal was 8.32 PBM z-score against 500 random probes.

For B11, the binding signal was 7.39 PBM z-score against 500 random probes.

For another data set, the target named is FXR:RXRa (Homo sapiens, UniProt Q96RI1;P19793 full;full). The description is as above. Particulars: tags: His kept;His cleaved; copies: 1;1; label: surface-attached array probe. In outline: as §1
Take B6: the binding signal was 8.92 PBM z-score against 500 random probes.

B7: the binding signal was 8.73 PBM z-score against 500 random probes.

On to B8, for which the binding signal was 8.52 PBM z-score against 500 random probes.

Turning to B9, the binding signal is 9.08 PBM z-score against 500 random probes.

B10: the binding signal was 8.33 PBM z-score against 500 random probes.

Turning to B11, the binding signal is 8.64 PBM z-score against 500 random probes.

Another data set addresses VDR:RXRa (Homo sapiens, UniProt P11473;P19793 full;full). The data set is described as above. Particulars: tags: His kept;His cleaved; copies: 1;1; label: surface-attached array probe. In outline:
as §1
Take B6: the binding signal is 7.29 PBM z-score against 500 random probes.

With B1, the binding signal is 7.91 PBM z-score against 500 random probes.

In the case of B7, the binding signal was 6.53 PBM z-score against 500 random probes.

As to B8, the binding signal was 7.22 PBM z-score against 500 random probes.

In the case of B9, the binding signal was 8.74 PBM z-score against 500 random probes.

For B10, the binding signal is 6.9 PBM z-score against 500 random probes.

B11: the binding signal was 7.56 PBM z-score against 500 random probes.

For a further data set, the target named is RARb:RXRa (Homo sapiens, UniProt P10826;P19793 full;full). The data set is described as above. Particulars: tags: His kept;His cleaved; copies: 1;1; label: surface-attached array probe. The essentials:
as §1
Consider B6, for which the binding signal is 6.2 PBM z-score against 500 random probes.

Consider B1, for which the binding signal is 5.43 PBM z-score against 500 random probes.

For the molecule B7, the binding signal is 5.8 PBM z-score against 500 random probes.

On to B8, for which the binding signal was 6.31 PBM z-score against 500 random probes.

Consider B9, for which the binding signal is 5.68 PBM z-score against 500 random probes.

Turning to B10, the binding signal was 6.17 PBM z-score against 500 random probes.

As to B11, the binding signal is 6.23 PBM z-score against 500 random probes.

These data come from paper PMC6555819, “Comprehensive study of nuclear receptor DNA binding provides a revised framework for understanding receptor specificity”.
